What was measured:
human FcRn/b2M [1] = target: T1, human FcRn/b2M (human, UniProt P61769 21-119, biotinylated); experiment: SPR pH 6.0;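 further: surface plasmon resonance kinetics at 25 °C, diluted periplasmic extracts injected over immobilized ligand surfaces, 120 s association then 600–3600 s dissociation, running buffer containing 150 mM NaCl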
T1 construct: bought recombinant biotinylated protein (ACRO FCM-H82W4 or Immunitrack ITF01); also called hFcRn; hFcRn/hb2M
Procedure: (§1) All kinetic measurements have been performed on ProteOn XPR36 (BioRad Laboratories, Inc.), MASS-2 (Sierra sensors, Gmbh) or SPR-32 (Bruker Corporation). […] The phytip purified periplasmic extracts were diluted 1:10 in running buffer (CPA+150 mM NaCl+0.005% Tw20 at pH 5.5, pH 6.0 or pH 7.4) and injected over the ligand surfaces (association: 120 s at 45 μL/min; dissociation: 600s-3600 s at 45 μL/min). Experiments were carried out at 25° C.

cyno FcRn/b2M [2] = target: T2, cyno FcRn/b2M (cyno, UniProt Q8SPV9 24-297; Q8SPW0 21-119, biotinylated); experiment: SPR pH 6.0;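 further: surface plasmon resonance kinetics at 25 °C, diluted periplasmic extracts injected over immobilized ligand surfaces, 120 s association then 600–3600 s dissociation, running buffer containing 150 mM NaCl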
T2 construct: bought recombinant biotinylated protein (Immunitrack ITF05 or ACRO FCM-C82W5); also called cFcRn; cFcRn/cb2M
T2 sequence (Q8SPV9 24-297 limits assumed, chain 1 of 2): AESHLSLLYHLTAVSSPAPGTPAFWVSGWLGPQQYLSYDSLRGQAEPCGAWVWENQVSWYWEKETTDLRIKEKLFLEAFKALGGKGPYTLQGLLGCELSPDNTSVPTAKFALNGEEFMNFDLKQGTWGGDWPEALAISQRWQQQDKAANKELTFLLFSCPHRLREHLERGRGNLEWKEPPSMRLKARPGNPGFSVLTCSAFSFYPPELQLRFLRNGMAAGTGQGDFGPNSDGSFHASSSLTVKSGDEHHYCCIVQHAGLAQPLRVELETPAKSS
T2 sequence (Q8SPW0 21-119 limits assumed, chain 2 of 2): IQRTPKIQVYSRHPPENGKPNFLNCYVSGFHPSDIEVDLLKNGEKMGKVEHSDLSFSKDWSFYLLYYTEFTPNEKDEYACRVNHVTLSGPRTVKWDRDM
Procedure: as §1

human FcRn/b2M [3] = target: T1, human FcRn/b2M; experiment: SPR off-rate; pH 7.4 vs pH 6.0;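 further: surface plasmon resonance with diluted periplasmic extracts flowed over ligand surfaces, 120 s association and 600–3600 s dissociation at 25 °C, running buffer containing 150 mM NaCl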
Procedure: as §1

cyno FcRn/b2M [4] = target: T2, cyno FcRn/b2M; experiment: SPR off-rate; pH 7.4 vs pH 6.0;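 further: surface plasmon resonance with diluted periplasmic extracts flowed over ligand surfaces, 120 s association and 600–3600 s dissociation at 25 °C, running buffer containing 150 mM NaCl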
Procedure: as §1

human FcRn/b2M [5] = target: T1, human FcRn/b2M; experiment: SPR pH 7.4;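 further: surface plasmon resonance kinetics, periplasmic extracts diluted 1:10 flowed over immobilized target at 25 °C, 120 s association then 600–3600 s dissociation, buffer with 150 mM NaCl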
Procedure: as §1

cyno FcRn/b2M [6] = target: T2, cyno FcRn/b2M; experiment: SPR pH 7.4;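 further: surface plasmon resonance kinetics, periplasmic extracts diluted 1:10 flowed over immobilized target at 25 °C, 120 s association then 600–3600 s dissociation, buffer with 150 mM NaCl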
Procedure: as §1

T1 sequence (chain, as listed by the source limits assumed, chain 1 of 2): as the sequence (Q8SPV9 24-297 limits assumed, chain 1 of 2) above, with D39N, Q44E, S99G, G189S, N190S, M217L, T269S counted along it
T1 sequence (P61769 21-119 limits assumed, chain 2 of 2): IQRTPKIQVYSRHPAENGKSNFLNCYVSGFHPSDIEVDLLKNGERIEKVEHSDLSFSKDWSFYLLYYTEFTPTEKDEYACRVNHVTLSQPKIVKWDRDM

Binder | koff (human FcRn/b2M [1]) [s⁻¹] | koff (cyno FcRn/b2M [2]) [s⁻¹] | kd ratio pH 7.4/6.0 (human FcRn/b2M [3]) | kd ratio pH 7.4/6.0 (cyno FcRn/b2M [4]) | koff (human FcRn/b2M [5]) [s⁻¹] | koff (cyno FcRn/b2M [6]) [s⁻¹]
T0263018B11 F29G (VHH, name in Kabat numbering, FLAG3-His6 tagged) VHH: EVQLVESGGGVVQPGGSLRLSCAASGFTGSSYAMYWVRQAPGKGLEWVSAISSGGGSTDYADSVKGRFTISRDNSKNTLYLQMNSLRPEDTALYYCAADTLYTSLTWYSYWGQGTLVTVSS | 0.0033 | 0.0025 | 45 | 56 | 0.15 | 0.14
T0263018B11 F29H (VHH, name in Kabat numbering, FLAG3-His6 tagged) VHH: EVQLVESGGGVVQPGGSLRLSCAASGFTHSSYAMYWVRQAPGKGLEWVSAISSGGGSTDYADSVKGRFTISRDNSKNTLYLQMNSLRPEDTALYYCAADTLYTSLTWYSYWGQGTLVTVSS | 0.0039 | 0.0031 | 36 | 42 | 0.14 | 0.13
T0263018B11 F29S (VHH, name in Kabat numbering, FLAG3-His6 tagged) VHH: EVQLVESGGGVVQPGGSLRLSCAASGFTSSSYAMYWVRQAPGKGLEWVSAISSGGGSTDYADSVKGRFTISRDNSKNTLYLQMNSLRPEDTALYYCAADTLYTSLTWYSYWGQGTLVTVSS | 0.0016 | 0.0013 | 41 | 45 | 0.066 | 0.059
T0263018B11 F29V (VHH, name in Kabat numbering, FLAG3-His6 tagged) VHH: EVQLVESGGGVVQPGGSLRLSCAASGFTVSSYAMYWVRQAPGKGLEWVSAISSGGGSTDYADSVKGRFTISRDNSKNTLYLQMNSLRPEDTALYYCAADTLYTSLTWYSYWGQGTLVTVSS | 0.0021 | 0.0016 | 42 | 54 | 0.089 | 0.086
T0263018B11 G26D (VHH, name in Kabat numbering, FLAG3-His6 tagged) VHH: EVQLVESGGGVVQPGGSLRLSCAASDFTFSSYAMYWVRQAPGKGLEWVSAISSGGGSTDYADSVKGRFTISRDNSKNTLYLQMNSLRPEDTALYYCAADTLYTSLTWYSYWGQGTLVTVSS | 0.0012 | 0.00095 | 53 | 61 | 0.063 | 0.058
T0263018B11 G26E (VHH, name in Kabat numbering, FLAG3-His6 tagged) VHH: EVQLVESGGGVVQPGGSLRLSCAASEFTFSSYAMYWVRQAPGKGLEWVSAISSGGGSTDYADSVKGRFTISRDNSKNTLYLQMNSLRPEDTALYYCAADTLYTSLTWYSYWGQGTLVTVSS | 0.00095 | 0.00081 | 44 | 62 | 0.042 | 0.05
T0263018B11 G26H (VHH, name in Kabat numbering, FLAG3-His6 tagged) VHH: EVQLVESGGGVVQPGGSLRLSCAASHFTFSSYAMYWVRQAPGKGLEWVSAISSGGGSTDYADSVKGRFTISRDNSKNTLYLQMNSLRPEDTALYYCAADTLYTSLTWYSYWGQGTLVTVSS | 0.00055 | 0.00016 | 62 | 159 | 0.034 | 0.026
T0263018B11 G26M (VHH, name in Kabat numbering, FLAG3-His6 tagged) VHH: EVQLVESGGGVVQPGGSLRLSCAASMFTFSSYAMYWVRQAPGKGLEWVSAISSGGGSTDYADSVKGRFTISRDNSKNTLYLQMNSLRPEDTALYYCAADTLYTSLTWYSYWGQGTLVTVSS | 0.00063 | 7.1e-05 | 52 | 349 | 0.033 | 0.025
T0263018B11 G26N (VHH, name in Kabat numbering, FLAG3-His6 tagged) VHH: EVQLVESGGGVVQPGGSLRLSCAASNFTFSSYAMYWVRQAPGKGLEWVSAISSGGGSTDYADSVKGRFTISRDNSKNTLYLQMNSLRPEDTALYYCAADTLYTSLTWYSYWGQGTLVTVSS | 0.00081 | 0.00037 | 53 | 86 | 0.042 | 0.032
T0263018B11 G26Q (VHH, name in Kabat numbering, FLAG3-His6 tagged) VHH: EVQLVESGGGVVQPGGSLRLSCAASQFTFSSYAMYWVRQAPGKGLEWVSAISSGGGSTDYADSVKGRFTISRDNSKNTLYLQMNSLRPEDTALYYCAADTLYTSLTWYSYWGQGTLVTVSS | 0.00065 | 1.3e-05 | 53 | 2010 | 0.034 | 0.026
T0263018B11 G26S (VHH, name in Kabat numbering, FLAG3-His6 tagged) VHH: EVQLVESGGGVVQPGGSLRLSCAASSFTFSSYAMYWVRQAPGKGLEWVSAISSGGGSTDYADSVKGRFTISRDNSKNTLYLQMNSLRPEDTALYYCAADTLYTSLTWYSYWGQGTLVTVSS | 0.00091 | 0.00079 | 52 | 67 | 0.047 | 0.053
T0263018B11 G26Y (VHH, name in Kabat numbering, FLAG3-His6 tagged) VHH: EVQLVESGGGVVQPGGSLRLSCAASYFTFSSYAMYWVRQAPGKGLEWVSAISSGGGSTDYADSVKGRFTISRDNSKNTLYLQMNSLRPEDTALYYCAADTLYTSLTWYSYWGQGTLVTVSS | 0.00065 | 0.00055 | 42 | 51 | 0.027 | 0.028
T0263018B11 G54E (VHH, name in Kabat numbering, FLAG3-His6 tagged) VHH: EVQLVESGGGVVQPGGSLRLSCAASGFTFSSYAMYWVRQAPGKGLEWVSAISSGEGSTDYADSVKGRFTISRDNSKNTLYLQMNSLRPEDTALYYCAADTLYTSLTWYSYWGQGTLVTVSS | 0.0016 | 0.0016 | 29 | 39 | 0.046 | 0.062
T0263018B11 G54L (VHH, name in Kabat numbering, FLAG3-His6 tagged) VHH: EVQLVESGGGVVQPGGSLRLSCAASGFTFSSYAMYWVRQAPGKGLEWVSAISSGLGSTDYADSVKGRFTISRDNSKNTLYLQMNSLRPEDTALYYCAADTLYTSLTWYSYWGQGTLVTVSS | 0.0016 | 0.0017 | 26 | 35 | 0.041 | 0.06
T0263018B11 G54P (VHH, name in Kabat numbering, FLAG3-His6 tagged) VHH: EVQLVESGGGVVQPGGSLRLSCAASGFTFSSYAMYWVRQAPGKGLEWVSAISSGPGSTDYADSVKGRFTISRDNSKNTLYLQMNSLRPEDTALYYCAADTLYTSLTWYSYWGQGTLVTVSS | 0.0016 | 0.0017 | 21 | 24 | 0.033 | 0.041
T0263018B11 G55D (VHH, name in Kabat numbering, FLAG3-His6 tagged) VHH: EVQLVESGGGVVQPGGSLRLSCAASGFTFSSYAMYWVRQAPGKGLEWVSAISSGGDSTDYADSVKGRFTISRDNSKNTLYLQMNSLRPEDTALYYCAADTLYTSLTWYSYWGQGTLVTVSS | 0.0017 | 0.0013 | 41 | 54 | 0.07 | 0.07
T0263018B11 L100aM (VHH, name in Kabat numbering, FLAG3-His6 tagged) VHH: EVQLVESGGGVVQPGGSLRLSCAASGFTFSSYAMYWVRQAPGKGLEWVSAISSGGGSTDYADSVKGRFTISRDNSKNTLYLQMNSLRPEDTALYYCAADTLYTSMTWYSYWGQGTLVTVSS | 0.015 | 0.013 | 42 | 41 | 0.62 | 0.51

— patent publication US20240132624A1 (Ablynx, published 2024)
